For ten substances, percent of transfected cells showing colocalization results are on record in publication PMC4615246.

Like-named read-outs stand apart in the source and are kept apart here.

Common to all, as to assay: LacI/LacO array recruitment in cells
The target of assay [1] is LacI-CFP-sPom121 (human) (UniProt Q96HA1).
Assay [2] addresses LacI-CFP-Nup214 (human) (UniProt P35658).
The target in assay [3] is LacI-CFP-Nup98 (human) (UniProt P52948).
The target of assay [4] is LacI-CFP-Nup107 (human) (UniProt P57740).
Sequence of LacI-CFP-Nup107 (human) (P57740 whole entry): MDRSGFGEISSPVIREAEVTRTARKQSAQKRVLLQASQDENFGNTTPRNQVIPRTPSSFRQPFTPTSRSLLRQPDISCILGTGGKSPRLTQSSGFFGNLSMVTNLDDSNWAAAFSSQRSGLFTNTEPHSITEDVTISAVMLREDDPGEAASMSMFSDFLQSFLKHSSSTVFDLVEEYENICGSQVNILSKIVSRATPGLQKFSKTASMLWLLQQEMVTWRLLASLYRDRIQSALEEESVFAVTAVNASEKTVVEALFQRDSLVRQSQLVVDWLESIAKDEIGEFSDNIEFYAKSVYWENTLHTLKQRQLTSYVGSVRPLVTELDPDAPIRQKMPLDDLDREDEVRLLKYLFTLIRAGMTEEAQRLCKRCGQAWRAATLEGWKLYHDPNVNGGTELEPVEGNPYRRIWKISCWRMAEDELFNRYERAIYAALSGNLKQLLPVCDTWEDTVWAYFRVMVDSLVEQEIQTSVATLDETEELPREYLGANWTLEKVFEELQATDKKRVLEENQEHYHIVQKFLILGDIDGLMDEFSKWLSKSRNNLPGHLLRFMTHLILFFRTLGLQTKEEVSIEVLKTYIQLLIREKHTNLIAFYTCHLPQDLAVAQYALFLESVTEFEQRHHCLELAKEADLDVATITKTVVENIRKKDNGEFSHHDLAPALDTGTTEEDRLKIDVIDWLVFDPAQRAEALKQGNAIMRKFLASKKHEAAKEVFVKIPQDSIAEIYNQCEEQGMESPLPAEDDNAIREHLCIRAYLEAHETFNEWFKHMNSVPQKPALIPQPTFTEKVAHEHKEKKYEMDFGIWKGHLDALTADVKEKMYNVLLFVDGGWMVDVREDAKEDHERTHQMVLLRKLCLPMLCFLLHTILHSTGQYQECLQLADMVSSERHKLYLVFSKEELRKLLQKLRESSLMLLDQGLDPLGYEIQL
The target of assay [5] is LacI-CFP-Nup50 (human) (UniProt Q9UKX7).
In assay [6] the target is LacI-CFP-Nup53 (human) (UniProt Q8NFH5).
Sequence of LacI-CFP-Nup53 (human) (Q8NFH5 whole entry): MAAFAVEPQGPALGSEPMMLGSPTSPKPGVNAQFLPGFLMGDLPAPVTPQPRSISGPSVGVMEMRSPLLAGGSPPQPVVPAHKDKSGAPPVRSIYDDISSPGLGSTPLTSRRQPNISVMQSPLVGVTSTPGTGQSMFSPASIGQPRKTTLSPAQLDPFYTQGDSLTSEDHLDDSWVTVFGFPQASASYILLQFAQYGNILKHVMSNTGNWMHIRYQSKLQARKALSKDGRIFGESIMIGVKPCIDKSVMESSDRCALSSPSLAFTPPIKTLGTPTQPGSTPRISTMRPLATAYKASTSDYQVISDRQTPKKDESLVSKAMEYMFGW
Assay [7] addresses LacI-CFP-mNup85 (mouse) (UniProt Q8R480).
The target in assay [8] is LacI-CFP-Nup153 (human) (UniProt P49790).
Sequence of LacI-CFP-Nup153 (human) (P49790 whole entry): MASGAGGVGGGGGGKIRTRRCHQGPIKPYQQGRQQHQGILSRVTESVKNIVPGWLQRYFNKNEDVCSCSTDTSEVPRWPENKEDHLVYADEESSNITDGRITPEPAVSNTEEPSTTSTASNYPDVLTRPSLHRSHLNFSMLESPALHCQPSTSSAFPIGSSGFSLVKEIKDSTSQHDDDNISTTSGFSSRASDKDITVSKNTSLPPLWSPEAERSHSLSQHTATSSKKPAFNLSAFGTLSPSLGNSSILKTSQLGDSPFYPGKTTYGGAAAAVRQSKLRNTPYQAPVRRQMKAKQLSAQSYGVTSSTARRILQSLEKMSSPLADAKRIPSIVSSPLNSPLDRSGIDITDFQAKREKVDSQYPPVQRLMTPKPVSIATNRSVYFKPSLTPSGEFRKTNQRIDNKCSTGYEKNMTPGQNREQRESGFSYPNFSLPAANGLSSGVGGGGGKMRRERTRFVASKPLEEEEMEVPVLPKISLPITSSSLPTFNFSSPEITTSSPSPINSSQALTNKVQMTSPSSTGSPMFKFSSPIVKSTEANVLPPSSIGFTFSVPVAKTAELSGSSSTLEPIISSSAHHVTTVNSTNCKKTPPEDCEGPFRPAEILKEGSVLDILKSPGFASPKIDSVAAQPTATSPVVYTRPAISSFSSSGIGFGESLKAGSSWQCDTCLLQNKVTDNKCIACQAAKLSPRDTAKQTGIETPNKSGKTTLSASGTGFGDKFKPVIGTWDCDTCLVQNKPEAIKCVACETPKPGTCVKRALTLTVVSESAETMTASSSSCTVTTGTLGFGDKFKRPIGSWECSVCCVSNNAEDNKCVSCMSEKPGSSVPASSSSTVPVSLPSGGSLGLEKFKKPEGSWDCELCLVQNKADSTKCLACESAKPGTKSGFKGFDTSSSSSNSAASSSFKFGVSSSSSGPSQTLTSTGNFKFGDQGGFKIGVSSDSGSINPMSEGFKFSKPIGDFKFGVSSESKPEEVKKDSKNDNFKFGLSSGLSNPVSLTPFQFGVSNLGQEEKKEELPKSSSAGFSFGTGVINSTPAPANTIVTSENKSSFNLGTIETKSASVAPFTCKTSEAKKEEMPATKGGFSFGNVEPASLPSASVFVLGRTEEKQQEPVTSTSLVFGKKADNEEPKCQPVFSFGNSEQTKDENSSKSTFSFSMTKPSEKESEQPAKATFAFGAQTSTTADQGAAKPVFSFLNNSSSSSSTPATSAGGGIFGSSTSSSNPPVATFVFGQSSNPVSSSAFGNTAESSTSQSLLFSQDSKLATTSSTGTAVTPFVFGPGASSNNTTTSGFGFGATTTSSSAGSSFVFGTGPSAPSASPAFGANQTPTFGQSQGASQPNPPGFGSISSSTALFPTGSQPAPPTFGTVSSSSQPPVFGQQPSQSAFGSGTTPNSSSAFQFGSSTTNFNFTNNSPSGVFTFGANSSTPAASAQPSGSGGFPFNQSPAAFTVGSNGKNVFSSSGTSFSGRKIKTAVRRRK
Assay [9] deals with LacI-CFP-Nup133 (human) (UniProt Q8WUM0).
Sequence of LacI-CFP-Nup133 (human) (Q8WUM0 whole entry): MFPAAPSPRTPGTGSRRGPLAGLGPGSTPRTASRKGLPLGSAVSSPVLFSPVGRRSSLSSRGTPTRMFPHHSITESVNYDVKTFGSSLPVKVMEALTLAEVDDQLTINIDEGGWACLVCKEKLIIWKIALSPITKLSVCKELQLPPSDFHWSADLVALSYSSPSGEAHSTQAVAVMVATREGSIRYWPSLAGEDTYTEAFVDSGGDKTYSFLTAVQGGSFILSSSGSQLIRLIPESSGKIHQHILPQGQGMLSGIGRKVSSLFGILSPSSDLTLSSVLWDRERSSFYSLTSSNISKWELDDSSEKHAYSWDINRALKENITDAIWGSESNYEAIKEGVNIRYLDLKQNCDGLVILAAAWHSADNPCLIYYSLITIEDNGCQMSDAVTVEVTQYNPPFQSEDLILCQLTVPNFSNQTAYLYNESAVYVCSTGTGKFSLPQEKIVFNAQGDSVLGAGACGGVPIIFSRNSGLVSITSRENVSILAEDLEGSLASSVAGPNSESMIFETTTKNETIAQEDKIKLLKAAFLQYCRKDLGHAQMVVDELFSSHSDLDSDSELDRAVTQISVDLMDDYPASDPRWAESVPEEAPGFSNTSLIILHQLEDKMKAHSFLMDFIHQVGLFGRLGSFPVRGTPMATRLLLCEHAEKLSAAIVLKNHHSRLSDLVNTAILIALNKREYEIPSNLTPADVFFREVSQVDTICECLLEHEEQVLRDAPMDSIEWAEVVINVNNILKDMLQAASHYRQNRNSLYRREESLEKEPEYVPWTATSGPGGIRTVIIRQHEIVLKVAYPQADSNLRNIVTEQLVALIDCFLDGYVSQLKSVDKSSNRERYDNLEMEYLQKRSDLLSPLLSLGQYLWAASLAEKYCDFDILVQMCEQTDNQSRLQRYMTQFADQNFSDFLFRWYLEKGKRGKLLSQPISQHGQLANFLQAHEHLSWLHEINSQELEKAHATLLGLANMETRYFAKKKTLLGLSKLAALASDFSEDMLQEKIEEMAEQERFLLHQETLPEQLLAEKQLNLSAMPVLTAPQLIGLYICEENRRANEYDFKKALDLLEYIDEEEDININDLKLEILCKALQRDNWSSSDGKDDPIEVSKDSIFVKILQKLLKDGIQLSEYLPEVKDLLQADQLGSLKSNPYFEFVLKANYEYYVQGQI
In assay [10] the target is LacI-CFP-Nup214 (human) (UniProt P35658). The source holds these as a separate data set.
Assay [11] deals with LacI-CFP-Nup58 (human) (UniProt Q9BVL2).
Assay [12] has as its target LacI-CFP-sPom121 (human) (UniProt Q96HA1). This is another data set of the same source.

Sequence of LacI-CFP-sPom121 (human) (Q96HA1 whole entry): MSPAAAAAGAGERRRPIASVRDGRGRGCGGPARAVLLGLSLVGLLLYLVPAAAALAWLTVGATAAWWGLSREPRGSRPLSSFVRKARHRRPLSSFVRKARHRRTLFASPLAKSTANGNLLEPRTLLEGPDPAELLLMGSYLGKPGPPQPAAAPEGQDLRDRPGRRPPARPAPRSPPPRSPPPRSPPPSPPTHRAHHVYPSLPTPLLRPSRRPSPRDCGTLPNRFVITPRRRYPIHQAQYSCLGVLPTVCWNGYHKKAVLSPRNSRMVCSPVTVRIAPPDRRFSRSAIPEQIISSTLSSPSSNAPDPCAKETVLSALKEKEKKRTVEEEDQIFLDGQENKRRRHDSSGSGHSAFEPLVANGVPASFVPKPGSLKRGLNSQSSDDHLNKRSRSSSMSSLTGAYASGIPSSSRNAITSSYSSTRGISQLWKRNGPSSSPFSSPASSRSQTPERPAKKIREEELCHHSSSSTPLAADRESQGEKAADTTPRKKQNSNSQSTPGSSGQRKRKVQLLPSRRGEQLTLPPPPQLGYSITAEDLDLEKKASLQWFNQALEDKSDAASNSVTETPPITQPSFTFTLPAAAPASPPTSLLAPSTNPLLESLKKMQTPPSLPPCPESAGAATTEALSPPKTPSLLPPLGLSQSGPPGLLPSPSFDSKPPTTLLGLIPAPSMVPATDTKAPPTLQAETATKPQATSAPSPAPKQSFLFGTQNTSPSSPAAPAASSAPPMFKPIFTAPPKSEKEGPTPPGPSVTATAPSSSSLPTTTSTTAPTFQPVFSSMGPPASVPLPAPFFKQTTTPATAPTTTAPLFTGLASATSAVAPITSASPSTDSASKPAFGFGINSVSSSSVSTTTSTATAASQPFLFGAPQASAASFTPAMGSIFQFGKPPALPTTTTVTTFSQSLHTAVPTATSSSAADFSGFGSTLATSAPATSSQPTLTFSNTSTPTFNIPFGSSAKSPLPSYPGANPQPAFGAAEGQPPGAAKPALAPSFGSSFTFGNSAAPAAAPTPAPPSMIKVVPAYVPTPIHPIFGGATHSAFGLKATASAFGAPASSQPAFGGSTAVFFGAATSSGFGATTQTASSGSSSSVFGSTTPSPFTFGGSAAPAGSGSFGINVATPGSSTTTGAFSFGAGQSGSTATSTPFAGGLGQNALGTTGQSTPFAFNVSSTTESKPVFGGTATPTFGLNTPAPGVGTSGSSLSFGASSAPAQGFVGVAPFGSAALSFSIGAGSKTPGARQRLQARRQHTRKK

“ELYS (endogenous) (from UniProt Q8WYP5 1-2266) (natural protein)”: the percent of transfected cells showing colocalization in assay [1] is 14%.
Take ELYS (endogenous), Q8WYP5 1-2266: the percent of transfected cells showing colocalization in assay [2] was determined as 45%; in [3], 16%; in [4] it was 72%; in assay [5], 37%; in [6], 34%; in assay [7], 9%. The percent of transfected cells showing colocalization in assay [8] worked out at 65%; in [9], 62%; in assay [10] it was 40%; in [11], 13%.
As for “Nup53 (endogenous) (from UniProt Q8NFH5 1-326) (natural protein)”, in assay [1], the percent of transfected cells showing colocalization is 2%.
“Nup62 (endogenous) (from UniProt P37198 1-522) (natural protein)” returned a percent of transfected cells showing colocalization in assay [1] of 89%.
Still for that read-out and setting: the result for “Nup85 (endogenous) (from UniProt Q9BW27 1-656) (natural protein)” reads 7%.
For “Nup93 (endogenous) (from UniProt Q8N1F7 1-819) (natural protein)”, the percent of transfected cells showing colocalization in [12] amounted to 71%; in assay [1], 68%.
The corresponding values for “Nup98 (endogenous) (from UniProt P52948 1-880) (natural protein)” are 74% and 72%.
For “Nup133 (endogenous) (from UniProt Q8WUM0 1-1156) (natural protein)”, the percent of transfected cells showing colocalization in [1] was 8%.
Consider “Nup214 (endogenous), P35658 1-2090 (natural protein)”, for which the percent of transfected cells showing colocalization in assay [9] was 23%.
“Nup214 (endogenous), P35658 1-2090 (natural protein; other documents disagree on this pair)” returned a percent of transfected cells showing colocalization in assay [8] of 6%.
